Test results as given in paper PMC549393.

Biological target: T1, TBP (TATA-binding protein);Brf1;Bdp1 (yeast?;yeast?;yeast?, UniProt P13393;P29056;P46678 1-240;1-596;1-594, ||)
T1 sequence 1: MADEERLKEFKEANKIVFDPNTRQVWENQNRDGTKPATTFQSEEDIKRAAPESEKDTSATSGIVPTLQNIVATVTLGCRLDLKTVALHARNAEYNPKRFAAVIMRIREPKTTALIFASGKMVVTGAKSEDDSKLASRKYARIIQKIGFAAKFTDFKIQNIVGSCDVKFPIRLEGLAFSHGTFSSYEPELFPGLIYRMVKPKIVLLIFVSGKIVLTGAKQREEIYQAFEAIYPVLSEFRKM
T1 sequence 2: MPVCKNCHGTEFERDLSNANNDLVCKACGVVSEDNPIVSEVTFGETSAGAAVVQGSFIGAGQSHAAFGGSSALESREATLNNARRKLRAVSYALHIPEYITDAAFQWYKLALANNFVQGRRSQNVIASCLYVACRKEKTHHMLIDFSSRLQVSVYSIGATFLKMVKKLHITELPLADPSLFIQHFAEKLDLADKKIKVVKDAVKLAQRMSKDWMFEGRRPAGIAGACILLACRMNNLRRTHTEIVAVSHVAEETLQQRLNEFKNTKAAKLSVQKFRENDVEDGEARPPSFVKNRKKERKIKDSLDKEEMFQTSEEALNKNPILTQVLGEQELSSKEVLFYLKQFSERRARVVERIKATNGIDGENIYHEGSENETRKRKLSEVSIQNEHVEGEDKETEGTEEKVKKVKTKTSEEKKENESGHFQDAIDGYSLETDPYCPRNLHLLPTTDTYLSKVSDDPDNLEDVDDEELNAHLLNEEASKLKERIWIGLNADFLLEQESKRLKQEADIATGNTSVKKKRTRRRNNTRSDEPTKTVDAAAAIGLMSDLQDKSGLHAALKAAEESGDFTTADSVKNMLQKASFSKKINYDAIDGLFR
T1 sequence 3: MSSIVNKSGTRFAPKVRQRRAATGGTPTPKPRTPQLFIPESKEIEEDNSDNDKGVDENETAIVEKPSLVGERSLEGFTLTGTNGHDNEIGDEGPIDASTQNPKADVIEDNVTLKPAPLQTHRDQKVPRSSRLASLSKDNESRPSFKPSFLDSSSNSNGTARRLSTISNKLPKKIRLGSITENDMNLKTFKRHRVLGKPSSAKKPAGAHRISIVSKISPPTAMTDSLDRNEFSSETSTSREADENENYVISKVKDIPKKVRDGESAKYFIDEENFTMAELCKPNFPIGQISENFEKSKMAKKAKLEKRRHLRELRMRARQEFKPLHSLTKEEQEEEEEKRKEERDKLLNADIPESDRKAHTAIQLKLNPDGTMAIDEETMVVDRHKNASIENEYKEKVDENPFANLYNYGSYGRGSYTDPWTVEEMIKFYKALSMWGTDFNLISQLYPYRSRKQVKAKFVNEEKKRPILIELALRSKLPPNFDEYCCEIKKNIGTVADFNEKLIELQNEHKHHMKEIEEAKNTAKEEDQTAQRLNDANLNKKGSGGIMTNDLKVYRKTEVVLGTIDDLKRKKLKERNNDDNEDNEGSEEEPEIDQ
Assay: EMSA

B1: U6 (SNR6) TATA-DNA, 30 bp (dsDNA)
DNA 1: TTTTCGGCTACTATAAATAAATGTTTTTTT
DNA 2: AAAAAAACATTTATTTATAGTAGCCGAAAA
  binding result: binds
